Data as given in the supplement of paper PMC9112550, “Optimization of the antimicrobial peptide Bac7 by deep mutational scanning” (BMC Biology, 2022).

Test system: Escherichia coli TOP10
Assay: shrunken log2 fold change of peptide-encoding DNA abundance (4.5 h post-induction vs induction); higher = less antimicrobial activity (less host growth inhibition)
Settings: time post-induction: 4.5 h; library: site-saturation at positions 5, 18, 19, 20
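Further: peptides expressed intracellularly from a pBAD plasmid library in pooled LB shake-flask culture, induced with 0.3% L-arabinose, DNA abundance read by NGS, three biological replicates, DESeq2 with apeglm shrinkage.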

Sequence: RRIRSRPPRLPRPRPRPMFPPRP
- shrunken log2 fold change: -0.22

Sequence: RRIRTRPPRLPRPRPRPKCDPRP
- shrunken log2 fold change: 0.118

Sequence: RRIRNRPPRLPRPRPRPITKPRP
- shrunken log2 fold change: -0.113

Sequence: RRIRQRPPRLPRPRPRPMHIPRP
- shrunken log2 fold change: -0.377

Sequence: RRIRNRPPRLPRPRPRPCRGPRP
- shrunken log2 fold change: -0.0345

Sequence: RRIRSRPPRLPRPRPRPKVWPRP
- shrunken log2 fold change: 0.115

Sequence: RRIRMRPPRLPRPRPRPASFPRP
- shrunken log2 fold change: 0.126

Sequence: RRIRVRPPRLPRPRPRPPPKPRP
- shrunken log2 fold change: 1.11

Sequence: RRIRERPPRLPRPRPRPMSIPRP
- shrunken log2 fold change: -0.239

Sequence: RRIRFRPPRLPRPRPRPDNRPRP
- shrunken log2 fold change: -0.0149

Sequence: RRIRFRPPRLPRPRPRPRVEPRP
- shrunken log2 fold change: 0.61

Sequence: RRIRTRPPRLPRPRPRPEVFPRP
- shrunken log2 fold change: 0.146

Sequence: RRIRERPPRLPRPRPRPEQTPRP
- shrunken log2 fold change: 0.111

Sequence: RRIRMRPPRLPRPRPRPGAQPRP
- shrunken log2 fold change: 1.24

Sequence: RRIRTRPPRLPRPRPRPIQKPRP
- shrunken log2 fold change: -0.00925

Sequence: RRIRPRPPRLPRPRPRPNHAPRP
- shrunken log2 fold change: -0.162

Sequence: RRIRNRPPRLPRPRPRPRVMPRP
- shrunken log2 fold change: 0.0236

Sequence: RRIRWRPPRLPRPRPRPAPAPRP
- shrunken log2 fold change: 1.38

Sequence: RRIRKRPPRLPRPRPRPICMPRP
- shrunken log2 fold change: 0.0199

Sequence: RRIRDRPPRLPRPRPRPCCKPRP
- shrunken log2 fold change: 0.0846

Sequence: RRIRQRPPRLPRPRPRPPDHPRP
- shrunken log2 fold change: -0.27

Sequence: RRIRARPPRLPRPRPRPCHAPRP
- shrunken log2 fold change: 0.284

Sequence: RRIRYRPPRLPRPRPRPTKCPRP
- shrunken log2 fold change: -0.544

Sequence: RRIRRRPPRLPRPRPRPPWDPRP
- shrunken log2 fold change: 0.577

Sequence: RRIRLRPPRLPRPRPRPTTIPRP
- shrunken log2 fold change: 0.255

Sequence: RRIRVRPPRLPRPRPRPDQWPRP
- shrunken log2 fold change: -0.0427

Sequence: RRIRQRPPRLPRPRPRPRAKPRP
- shrunken log2 fold change: 0.0777

Sequence: RRIRHRPPRLPRPRPRPIANPRP
- shrunken log2 fold change: -0.24

Sequence: RRIRKRPPRLPRPRPRPRAYPRP
- shrunken log2 fold change: -0.382

Sequence: RRIRMRPPRLPRPRPRPLHLPRP
- shrunken log2 fold change: -0.254

Sequence: RRIRWRPPRLPRPRPRPMPAPRP
- shrunken log2 fold change: 0.995

Sequence: RRIRPRPPRLPRPRPRPPSPPRP
- shrunken log2 fold change: 0.439

Sequence: RRIRPRPPRLPRPRPRPCAWPRP
- shrunken log2 fold change: 0.0868

Sequence: RRIRRRPPRLPRPRPRPRMGPRP
- shrunken log2 fold change: 0.136

Sequence: RRIRYRPPRLPRPRPRPAGLPRP
- shrunken log2 fold change: 0.125

Sequence: RRIRIRPPRLPRPRPRPYHGPRP
- shrunken log2 fold change: -0.0135

Sequence: RRIRTRPPRLPRPRPRPPFHPRP
- shrunken log2 fold change: 0.535

Sequence: RRIRQRPPRLPRPRPRPNSDPRP
- shrunken log2 fold change: -0.594

Sequence: RRIRQRPPRLPRPRPRPTVFPRP
- shrunken log2 fold change: -0.0987

Sequence: RRIRNRPPRLPRPRPRPGAKPRP
- shrunken log2 fold change: 0.362

Sequence: RRIRCRPPRLPRPRPRPSCNPRP
- shrunken log2 fold change: 0.329

Sequence: RRIRDRPPRLPRPRPRPDCHPRP
- shrunken log2 fold change: 0.469

Sequence: RRIRYRPPRLPRPRPRPQGSPRP
- shrunken log2 fold change: -0.19

Sequence: RRIRVRPPRLPRPRPRPQKNPRP
- shrunken log2 fold change: -0.217

Sequence: RRIRERPPRLPRPRPRPIYGPRP
- shrunken log2 fold change: 0.0231

Sequence: RRIRLRPPRLPRPRPRPCFRPRP
- shrunken log2 fold change: 0.0965

Sequence: RRIRSRPPRLPRPRPRPYLQPRP
- shrunken log2 fold change: -0.176

Sequence: RRIRYRPPRLPRPRPRPIASPRP
- shrunken log2 fold change: -0.196

Sequence: RRIRLRPPRLPRPRPRPWIWPRP
- shrunken log2 fold change: -0.0106

Sequence: RRIRERPPRLPRPRPRPPCDPRP
- shrunken log2 fold change: -0.187

Sequence: RRIRKRPPRLPRPRPRPKQAPRP
- shrunken log2 fold change: 0.00509

Sequence: RRIRKRPPRLPRPRPRPLMHPRP
- shrunken log2 fold change: 0.0704

Sequence: RRIRNRPPRLPRPRPRPGIMPRP
- shrunken log2 fold change: -0.186

Sequence: RRIRKRPPRLPRPRPRPIQKPRP
- shrunken log2 fold change: 0.0671

Sequence: RRIRERPPRLPRPRPRPKKPPRP
- shrunken log2 fold change: 0.507

Sequence: RRIRVRPPRLPRPRPRPTNDPRP
- shrunken log2 fold change: 0.0333

Sequence: RRIRIRPPRLPRPRPRPMTHPRP
- shrunken log2 fold change: -0.996

Sequence: RRIRARPPRLPRPRPRPIHFPRP
- shrunken log2 fold change: -0.169

Sequence: RRIRIRPPRLPRPRPRPGKYPRP
- shrunken log2 fold change: -0.394

Sequence: RRIRNRPPRLPRPRPRPDPSPRP
- shrunken log2 fold change: 0.152

Sequence: RRIRVRPPRLPRPRPRPGRNPRP
- shrunken log2 fold change: -0.00746

Sequence: RRIRPRPPRLPRPRPRPFHAPRP
- shrunken log2 fold change: -0.0472

Sequence: RRIRHRPPRLPRPRPRPNCWPRP
- shrunken log2 fold change: 0.612

Sequence: RRIRHRPPRLPRPRPRPIMIPRP
- shrunken log2 fold change: -0.192

Sequence: RRIRDRPPRLPRPRPRPRQAPRP
- shrunken log2 fold change: 0.102

Sequence: RRIRERPPRLPRPRPRPLKRPRP
- shrunken log2 fold change: -0.28

Sequence: RRIRWRPPRLPRPRPRPQRRPRP
- shrunken log2 fold change: 0.358

Sequence: RRIRFRPPRLPRPRPRPYPHPRP
- shrunken log2 fold change: -1.04

Sequence: RRIRRRPPRLPRPRPRPMVLPRP
- shrunken log2 fold change: -0.0254

Sequence: RRIRDRPPRLPRPRPRPKDFPRP
- shrunken log2 fold change: -0.00804

Sequence: RRIRWRPPRLPRPRPRPHAEPRP
- shrunken log2 fold change: 0.0375

Sequence: RRIRNRPPRLPRPRPRPYMHPRP
- shrunken log2 fold change: -0.671

Sequence: RRIRLRPPRLPRPRPRPHSYPRP
- shrunken log2 fold change: -0.0533

Sequence: RRIRRRPPRLPRPRPRPHYQPRP
- shrunken log2 fold change: -0.319

Sequence: RRIRDRPPRLPRPRPRPMYLPRP
- shrunken log2 fold change: -0.239
